Measurements from IntAct's records for PubMed 22613832.

B1: Ras-related protein Rab-11B (Homo sapiens), Q15907 (parent)
chain: MGTRDDEYDYLFKVVLIGDSGVGKSNLLSRFTRNEFNLESKSTIGVEFATRSIQVDGKTIKAQIWDTAGQERYRAITSAYYRGAVGALLVYDIAKHLTYENVERWLKELRDHADSNIVIMLVGNKSDLRHLRAVPTDEARAFAEKNNLSFIETSALDSTNVEEAFKNILTEIYRIVSQKQIADRAAHDESPGNNVVDISVPPTTDGQKPNKLQCCQNL
partner: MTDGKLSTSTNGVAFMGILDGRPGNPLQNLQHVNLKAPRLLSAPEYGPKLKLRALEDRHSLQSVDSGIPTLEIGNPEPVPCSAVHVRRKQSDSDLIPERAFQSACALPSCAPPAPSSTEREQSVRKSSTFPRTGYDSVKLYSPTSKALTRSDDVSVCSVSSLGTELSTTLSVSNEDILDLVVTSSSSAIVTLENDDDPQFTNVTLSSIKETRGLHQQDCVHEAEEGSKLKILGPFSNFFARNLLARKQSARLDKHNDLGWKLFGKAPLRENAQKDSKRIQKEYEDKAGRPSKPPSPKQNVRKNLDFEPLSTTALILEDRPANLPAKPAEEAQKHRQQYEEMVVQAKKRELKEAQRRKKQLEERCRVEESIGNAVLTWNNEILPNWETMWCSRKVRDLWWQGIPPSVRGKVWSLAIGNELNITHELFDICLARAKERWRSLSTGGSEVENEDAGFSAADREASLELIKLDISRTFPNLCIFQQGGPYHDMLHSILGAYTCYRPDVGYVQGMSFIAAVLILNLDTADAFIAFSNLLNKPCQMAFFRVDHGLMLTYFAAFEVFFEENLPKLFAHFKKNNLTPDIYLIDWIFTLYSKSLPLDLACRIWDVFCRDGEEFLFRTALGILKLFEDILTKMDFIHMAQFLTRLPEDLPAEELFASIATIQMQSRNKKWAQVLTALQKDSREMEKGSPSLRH

Variants of: B1
Conditions: with tbc14_human TBC1D14, Q9P2M4

Variant | effect of a mutation on the interaction
S25N | decreasing interaction strength
Q70A | increasing interaction strength
